From US20230280353A1, “DETECTION SYSTEM OF INTERACTION BETWEEN KNOWN MOLECULES AND PROTEINS BASED ON COVALENT CONNECTION AND IDENTIFICATION OR VERIFICATION METHOD THEREOF” (SHANGHAI JIAO TONG UNIVERSITY, priority 2021, published 2023) come the findings set out here.

The labels stand for the following.
B3: CobB protein (biotin-modified, with Avi tag) (enzyme)
chain: MLSRRGHRLSRFRKNKRRLRERLRQRIFFRDKVVPEAMEKPRVLVLTGAGISAESGIRTFRAADGLWEEHRVEDVATPEGFDRDPELVQAFYNARRRQLQQPEIQPNAAHLALAKLQDALGDRFLLVTQNIDNLHERAGNTNVIHMHGELLKVRCSQSGQVLDWTGDVTPEDKCHCCQFPAPLRPHVVWFGEMPLGMDEIYMALSMADIFIAIGTSGHVYPAAGFVHEAKLHGAHTVELNLEPSQVGNEFAEKYYGPASQVVPEFVEKLLKGLKAGSIA
notes: also called biotinylated CobB protein

Data set [1] relates to YTDHF1, YTDHF2, YTDHF3 proteins. As to the kind of experiment: SPIDER verification (immunoblot) of biotinylated m6A RNA with YTDHF1, YTDHF2, YTDHF3. The data set is classed as binding. As to conditions: 0.5 μM biotinylated m6A RNA; GFP antibody. An excerpt: The sequences of YTDHF1-GFP, YTDHF2-GFP and YTDHF3-GFP were constructed on pCDNA3.1 vector and transfected into HEK293T cells with Lipofectamine 2000 (ThermoFisher 118668).
Immunoblot analysis of GFP antibody was used.

Data set [2] can be described thus: Capture and mass spectrometry identification of m6A RNA interacting proteins. The note with it: 1 μM bait, HEK293T cell lysate. The class given is binding. As for the experimental part:
HEK293T normal cells and SLIAC (Lys/Arg relabeled) cells were cultured and lysed with Thermo Fisher 78501 M-PER® Mammalian Protein Extraction to obtain cell lysates.
The reaction system was prepared as follows: 1 μM biotinylated m6A RNA, 5 μM SAm-Pup^E, 0.5 μM PafA7KR enzyme, 5 mM ATP, 5 mg HEK293T cell lysate or SILAC cell lysate were added, and buffer (50 mM Tris 8.0, 0.5 M NaCl, 20 mM MgCl2, 10% (v/v) Glycerol, 10 mM imidazole) was lysed to 5 ml. The system was incubated at 30° C. for 6h, and biotin agarose beads were added for incubation overnight at 4° C. Wash buffer 1 (8M urea, 50 mM Tris 8.0, 200 mM NaCl, 0.2% SDS), Wash Buffer 2 (8M urea, 50 mM Tris 8.0, 200 mM NaCl, 2% SDS), Wash buffer 3 (8M urea, 50 mM Tris 8.0, 200 mM NaCl), Wash buffer 4 (50 mM Tris 8.0, 0.5 mM EDTA, 1 mM DTT), Wash buffer 5 (50 mM NH4HCO3) were incubated at room temperature for 5 min and centrifuged at 1500 rpm for 4 min. The biotin agarose beads were transferred to a 1.5 mL centrifuge tube, centrifuged in a horizontal centrifuge with 1 mL Wash buffer 5, 1500 rpm for 4 min and washed repeatedly with Wash buffer 5 to obtain the reaction product. Trypsin was lysed and identified by mass spectrometry.

Data set [3] addresses CobB protein (biotin-modified, with Avi tag) (UniProt P75960). Put plainly: BLI; series 1000, 500, 250, 125, 62.5 nM; the filing does not say which partner was on the sensor.
In data set [4] the target is T1, ETHR protein (Mycobacterium tuberculosis, UniProt P9WMC1).
T1 construct: Flag (C); 6×His (C); made in house; host or cells: E. coli BL21 (DE3), pET28a
The class given is binding.

The test system of data set [5] is CSP series proteins (CSP1, CSP2, CSP3). As to the kind of experiment: SPIDER verification (Western blot) of c-di-GMP and CSP series short peptides. The data set is classed as binding. As to conditions: 2 μM, CSP proteins 5 μM; compared with c-di-GMP without biotinylation. As for the experimental part: The N-terminal sequences encoding CSP1, CSP2 and CSP3 were all labeled with Flag tags and constructed on PET32a vector, which was fused with thioredoxin for expression. The recombinant vector was transformed into E. coli BL21 (DE3) strain. The CSP1, CSP2 and CSP3 proteins were obtained by adding IPTG and inducing at 37° C. for 4h when OD600 was about 0.6 in 1 L of bacteria medium. The CSP1, CSP2 and CSP3 proteins were purified by nickel column.
After that, PafA7KR (1 μM) and ATP (10 mM) were added into the system and incubated at 30° C. for 6 h. Flag antibody was used for Western blot analysis.
In general terms: A western blot detects proteins with antibodies after separation by electrophoresis.

In data set [6] the target is CobB protein (biotin-modified, with Avi tag) (UniProt P75960). As to the kind of experiment: BLI; series 1000, 500, 250, 125 nM; the filing does not say which partner was on the sensor. In general terms: Biolayer interferometry detects binding as a change in optical thickness at a sensor tip.
Data set [7] concerns CheAs protein. The data set is classed as binding. The note with it: CheZ 0, 0.1, 0.2, 0.4 μM; wild-type CheAs 0.2 μM.
Data set [8] has as its target B3. Put plainly: BLI; series 7500, 5000, 2500, 1250 nM; the filing does not say which partner was on the sensor.
In data set [9] the target is T2, VacB (UniProt P21499 1-813).
T2 sequence: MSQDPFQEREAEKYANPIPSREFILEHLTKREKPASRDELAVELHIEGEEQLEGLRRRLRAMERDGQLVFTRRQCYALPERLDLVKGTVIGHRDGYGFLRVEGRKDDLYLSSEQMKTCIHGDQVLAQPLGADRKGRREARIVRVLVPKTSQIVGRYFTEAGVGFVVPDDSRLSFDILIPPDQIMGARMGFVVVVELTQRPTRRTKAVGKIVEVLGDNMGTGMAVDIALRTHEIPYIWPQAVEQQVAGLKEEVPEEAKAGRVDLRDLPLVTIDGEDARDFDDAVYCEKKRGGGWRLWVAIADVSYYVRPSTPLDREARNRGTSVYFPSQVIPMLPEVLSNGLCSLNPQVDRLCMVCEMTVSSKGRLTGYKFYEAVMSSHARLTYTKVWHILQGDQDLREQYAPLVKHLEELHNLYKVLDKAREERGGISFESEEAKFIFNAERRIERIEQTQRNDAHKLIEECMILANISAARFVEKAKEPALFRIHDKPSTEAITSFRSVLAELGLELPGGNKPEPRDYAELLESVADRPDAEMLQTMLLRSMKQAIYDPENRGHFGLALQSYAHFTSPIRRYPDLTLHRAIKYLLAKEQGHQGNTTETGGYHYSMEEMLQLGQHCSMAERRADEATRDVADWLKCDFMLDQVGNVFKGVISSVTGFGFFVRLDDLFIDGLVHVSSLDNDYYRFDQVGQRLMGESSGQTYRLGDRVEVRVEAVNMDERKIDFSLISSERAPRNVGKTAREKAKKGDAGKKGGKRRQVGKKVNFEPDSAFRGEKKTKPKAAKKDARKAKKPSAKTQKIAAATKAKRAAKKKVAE
As to the kind of experiment: BLI; series 1000, 500, 250, 125, 62.5 nM; the filing does not say which partner was on the sensor.

Data set [10] addresses CobB interacting proteins found and purified (tested by BLI, FIGS. 8B-8F). As to the kind of experiment: BLI.
For data set [11], the target named is T3, DksA, P0ABS1.
T3 chain: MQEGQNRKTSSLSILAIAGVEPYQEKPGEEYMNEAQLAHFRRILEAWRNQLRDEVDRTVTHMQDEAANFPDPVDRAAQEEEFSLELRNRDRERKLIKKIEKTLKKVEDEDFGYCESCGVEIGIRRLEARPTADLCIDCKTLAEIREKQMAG

Data set [12] deals with T4, VacB, P21499.
T4 chain: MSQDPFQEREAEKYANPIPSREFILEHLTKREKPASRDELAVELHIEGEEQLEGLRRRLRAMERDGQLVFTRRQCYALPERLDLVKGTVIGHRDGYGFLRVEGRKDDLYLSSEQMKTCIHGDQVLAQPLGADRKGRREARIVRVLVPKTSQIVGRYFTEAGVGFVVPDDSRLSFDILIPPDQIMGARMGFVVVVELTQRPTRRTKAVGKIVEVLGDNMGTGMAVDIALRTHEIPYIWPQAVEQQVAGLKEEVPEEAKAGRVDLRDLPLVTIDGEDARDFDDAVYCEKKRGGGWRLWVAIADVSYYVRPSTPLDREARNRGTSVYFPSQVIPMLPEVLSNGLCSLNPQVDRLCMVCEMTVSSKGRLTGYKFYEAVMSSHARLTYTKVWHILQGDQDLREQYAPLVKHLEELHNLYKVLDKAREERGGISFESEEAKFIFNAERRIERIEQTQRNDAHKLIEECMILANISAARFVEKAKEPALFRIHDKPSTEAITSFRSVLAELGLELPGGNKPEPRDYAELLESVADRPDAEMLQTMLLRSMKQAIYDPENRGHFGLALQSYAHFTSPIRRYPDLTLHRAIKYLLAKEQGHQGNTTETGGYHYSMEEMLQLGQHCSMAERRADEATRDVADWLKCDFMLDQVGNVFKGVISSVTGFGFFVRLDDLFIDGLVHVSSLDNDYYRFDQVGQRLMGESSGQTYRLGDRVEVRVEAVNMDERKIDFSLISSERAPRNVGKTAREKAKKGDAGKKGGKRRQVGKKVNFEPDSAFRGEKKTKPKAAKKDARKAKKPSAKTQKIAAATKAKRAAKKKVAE

Data set [13] relates to VacB and DksA proteins. Put plainly: CobB deacetylation of VacB and DksA (Western blot, acetylation antibody). The note with it: VacB and DksA co-incubated with CobB. The class given is biochemical. As for the experimental part:
CobB has the activity of deacetylase. CobB was co-incubated with VacB and DksA proteins, and the acetylation level of protein was detected by Western blot analysis of acetylation antibody.

With “biotinylated m6A RNA: 5′-terminal biotin-modified m6A RNA, sequence CGUCUCGGCUCGGCUGCU (SEQ ID NO: 8) (5' biotin, m6A modification, chemistry not fully specified)”, the “protein-SAm-Pup^E complex bands” value in data set [1] is reported as “presence of complex bands only in the presence of biotinylated m6A RNA”. Also, the “binding proteins obtained by mass spectrometry” value in data set [2] was “YTDHF1, YTDHF2 and YTDHF3”.
GldA: in [3], the Kd amounted to 59.4 nM and the koff is 0.000295 s⁻¹.
For the molecule biotinylated c-di-GMP, the “complex band of ETHR and SAm-Pup^E monomer” value in [4] is “the detected complex bands become thicker”. In addition, in [5], the “migration of CSP series protein bands” value is “migrated significantly”.
As for RoxA, in data set [3], the Kd amounted to 103 nM and the koff was 0.00124 s⁻¹.
In data set [6], RraA displayed an equilibrium dissociation constant (Kd) of 24.6 nM and a koff of 0.000201 s⁻¹.
As to `Nc1nc2c(ncn2[C@@H]2O[C@@H]3COP(=O)(O)O[C@H]4[C@@H](O)[C@H](n5cnc6c(=O)[nH]c(N)nc65)O[C@@H]4COP(=O)(O)O[C@H]3[C@H]2O)c(=O)[nH]1` [c-di-GMP], the “complex bands with excessive non-biotinylated competitor” value in data set [4] (excessive non-biotinylated c-di-GMP added to compete with biotinylated c-di-GMP) is recorded as “the complex bands were basically unchanged”.

B1: CheZ: biotin-modified protein CheZ with Avi tag (protein)
chain: MMQPSIKPADEHSAGDIIARIGSLTRMLRDSLRELGLDQAIAEAAEAIPDARDRLYYVVQMTAQAAERALNSVEASQPHQDQMEKSAKALTQRWDDWFADPIDLADARELVTDTRQFLADVPAHTSFTNAQLLEIMMAQDFQDLTGQVIKRMMDVIQEIERQLLMVLLENIPEQESRPKRENQSLLNGPQVDTSKAGVVASQDQVDDLLDSLGF
Regarding B1, the “complex bands of CheAs and SAm-Pup^E monomer” value in [7] is recorded as “the detected complex bands become thicker”.

B2: DksA (other)
chain: MQEGQNRKTSSLSILAIAGVEPYQEKPGEEYMNEAQLAHFRRILEAWRNQLRDEVDRTVTHMQDEAANFPDPVDRAAQEEEFSLELRNRDRERKLIKKIEKTLKKVEDEDFGYCESCGVEIGIRRLEARPTADLCIDCKTLAEIREKQMAG
Regarding B2, in [8], the Kd was found to be 772 nM and the off-rate constant (koff) worked out at 0.00167 s⁻¹.
For B3, in data set [9], the Kd was determined as 156 nM and the koff was determined as 0.00163 s⁻¹. Moreover, in [10], the Kd is 25 to 772 nM. In [11], the “acetylation level of DksA (IB: Ac-K), with and without CobB” value is “Ac-K band seen without CobB, not seen with CobB; His (DksA) bands alike in both lanes; biotin-CobB band only in the + lane”; the “acetylation level of protein detected by Western blot analysis of acetylation antibody” value is given as “the acetylation level of a group of proteins added with CobB decreased obviously”. In data set [12], the “acetylation level of VacB (IB: Ac-K), with and without CobB” value is on record as “Ac-K band clear without CobB, almost gone with CobB; His (VacB) bands alike in both lanes; biotin-CobB band only in the + lane”; the “acetylation level of protein detected by Western blot analysis of acetylation antibody” value is listed as “the acetylation level of a group of proteins added with CobB decreased obviously”.

B4: CobB: Biotin-modified CobB protein with Avi tag; has deacetylase activity (protein)
chain: MLSRRGHRLSRFRKNKRRLRERLRQRIFFRDKVVPEAMEKPRVLVLTGAGISAESGIRTFRAADGLWEEHRVEDVATPEGFDRDPELVQAFYNARRRQLQQPEIQPNAAHLALAKLQDALGDRFLLVTQNIDNLHERAGNTNVIHMHGELLKVRCSQSGQVLDWTGDVTPEDKCHCCQFPAPLRPHVVWFGEMPLGMDEIYMALSMADIFIAIGTSGHVYPAAGFVHEAKLHGAHTVELNLEPSQVGNEFAEKYYGPASQVVPEFVEKLLKGLKAGSIA
Regarding B4, in [13], the “acetylation level of protein” value is listed as “decreased obviously”.

What is called Kd is the constant that tells how readily two partners part at equilibrium. A higher Kd goes with weaker binding. What is called koff is a measure of how fast the partners let go of each other.
